The values that follow come from the supplement of paper PMC7877785.

± gives the uncertainty stated by the source.

The series in a line: self-splicing fitness, log relative to wild type (ln ratio); higher = more splicing; Tetrahymena group I intron in knt gene, E. coli kanamycin selection, DiMSum; sequences stand for … in CUCUCU…GGAGGGAAAAGUUAUCAGGCAUGCACCUGGUAGCUAGUCUUUAAACCAAUAGAUUGCAUCGGUUUAAAAGGCAAGACCGUCAAAUUGCGGGAAAGGGGUCAACAGCCGUUCAGUACCAAGUCUCAGGGGAAACUUUGAGAUGGCCUUGCAAAGGGUAUGGUAAUAAGCUGACGGACAUGGUCCUAACCACGCAGCCAAGUCCUAAGUCAACAGAUCUUCUGUUGAUAUGGAUGCAGUUCACAGACUAAAUGUCGGUCGGGGAAGAUGUAUUCUUCUCAUAAGAUAUAGUCGGACCUCUCCUUAAUGGGAGCUAGCGGAUGAAGUGAUGCAACACUGGAGCCGCUGGGAACUAAUUUGUAUGCGAAAGUAUAUUGAUUAGUUUUGGAGUACUCGUGGUCG
Summed up: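 A randomised library covering all eight P1ex-region intron nucleotides was built with the intron in the knt kanamycin-resistance gene on pET-22b(+) and held in E. coli BL21(DE3). Cells were grown overnight at 37°C or 30°C on LB agar, with or without 25 μg/mL kanamycin, plus 100 μg/mL carbenicillin, 50 μM IPTG and 0.2% rhamnose, and pooled colonies were amplicon-sequenced on an Illumina HiSeq 2500. DiMSum fitness is the error-weighted combination of wild-type-normalised replicate fold changes, kanamycin versus none.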

GUAUAGCAAUAUUACGGCUA: the “self-splicing fitness (ln)” value (30 °C) is -0.758 ± 0.13 and the “self-splicing fitness (ln)” value (37 °C) is -0.383 ± 0.11. Consider CAACAGCAAUAUUACGUAUG, for which the “self-splicing fitness (ln)” value by setting is: (30 °C) -2.88 ± 0.12; (37 °C) -1.35 ± 0.1.

In the case of CUACAGCAAUAUUACGGGCU, the “self-splicing fitness (ln)” value was -4.53 ± 0.29 (30 °C) and -2.97 ± 0.29 (37 °C). As to UCUAAGCAAUAUUACGUCAA, the “self-splicing fitness (ln)” value (30 °C) was -2.57 ± 0.24 and the “self-splicing fitness (ln)” value (37 °C) is -1.77 ± 0.27. With CUUAAGCAAUAUUACGAUCU, the “self-splicing fitness (ln)” value is, setting by setting: (30 °C) -3.14 ± 0.37; (37 °C) -1.48 ± 0.31.

As to CUGUAGCAAUAUUACGCCUC, the “self-splicing fitness (ln)” value (30 °C) is -2.16 ± 0.4. For GUACAGCAAUAUUACGCAUA, the “self-splicing fitness (ln)” value (30 °C) is -2.65 ± 0.15 and the “self-splicing fitness (ln)” value (37 °C) is -1.56 ± 0.11. For CUUGAGCAAUAUUACGCGCU, the “self-splicing fitness (ln)” value is, setting by setting: (30 °C) -2.45 ± 0.29; (37 °C) -1.22 ± 0.39.

For the sequence CUGCAGCAAUAUUACGGCCA, the “self-splicing fitness (ln)” value by setting is: (30 °C) -1.25 ± 0.34; (37 °C) -0.578 ± 0.24. With UUGCAGCAAUAUUACGCCUU, the “self-splicing fitness (ln)” value by setting is: (30 °C) -0.0132 ± 0.081; (37 °C) 0.15 ± 0.11. As to AAGCAGCAAUAUUACGUACU, the “self-splicing fitness (ln)” value stood at 0.254 ± 0.1 (30 °C) and 0.172 ± 0.11 (37 °C). On the same counts, the results for GUGAAGCAAUAUUACGCAUA are -0.646 ± 0.15 and -0.0533 ± 0.17. The like results for AUAUAGCAAUAUUACGGGAG were, in that order, -4.22 ± 0.39 and -1.59 ± 0.24.

For the sequence CUAAAGCAAUAUUACGCAUG, the “self-splicing fitness (ln)” value is, setting by setting: (30 °C) -0.592 ± 0.071; (37 °C) -0.193 ± 0.089. Turning to CUACAGCAAUAUUACGUUCC, the “self-splicing fitness (ln)” value (30 °C) was -2.48 ± 0.22. The same measure, in the same setting: the value for GGAGAGCAAUAUUACGUACG was -2.56 ± 0.43.

As for CGUAAGCAAUAUUACGGCUA, the “self-splicing fitness (ln)” value runs as follows: (30 °C) -2.35 ± 0.41; (37 °C) -1.48 ± 0.33. The like results for AGAAAGCAAUAUUACGUGGA were, in that order, -2.47 ± 0.12 and -2.28 ± 0.13. On the same counts, the results for AAUUAGCAAUAUUACGGAAA are -1.83 ± 0.29 and -1.72 ± 0.49.

GCAAAGCAAUAUUACGCGCG: the “self-splicing fitness (ln)” value is -1.55 ± 0.12 (30 °C) and -0.161 ± 0.15 (37 °C). On the same counts, the results for CAGAAGCAAUAUUACGACUU are -0.506 ± 0.078 and 0.0901 ± 0.079. On the same counts, the results for GGUCAGCAAUAUUACGCUCA are -1.15 ± 0.12 and -0.0519 ± 0.17. As for GUUUAGCAAUAUUACGCGCC, the “self-splicing fitness (ln)” value reads like this: (30 °C) -3.31 ± 0.43; (37 °C) -2.51 ± 0.44. The like results for GGUAAGCAAUAUUACGAAUA were, in that order, -1.25 ± 0.26 and -0.561 ± 0.27. As to CAUGAGCAAUAUUACGAGCG, the “self-splicing fitness (ln)” value was -0.045 ± 0.092 (30 °C) and 0.443 ± 0.11 (37 °C).

Consider UAGGAGCAAUAUUACGGGUA, for which the “self-splicing fitness (ln)” value (30 °C) was -1.45 ± 0.17 and the “self-splicing fitness (ln)” value (37 °C) is -2.13 ± 0.21. The like results for GUCAAGCAAUAUUACGAGAU were, in that order, -5.3 ± 0.38 and -3.28 ± 0.2. On the same counts, the results for UGUGAGCAAUAUUACGUUGG are -2.86 ± 0.31 and -2.85 ± 0.44. In the case of CUAGAGCAAUAUUACGCGGA, the “self-splicing fitness (ln)” value (37 °C) was -1.33 ± 0.36. With ACUGAGCAAUAUUACGCGCA, the “self-splicing fitness (ln)” value is -3.04 ± 0.42 (30 °C) and -1.66 ± 0.36 (37 °C). Consider CCUAAGCAAUAUUACGGGCU, for which the “self-splicing fitness (ln)” value was -3.03 ± 0.33 (30 °C) and -2.46 ± 0.33 (37 °C). On the same counts, the results for UAGAAGCAAUAUUACGUGUA are -1.95 ± 0.11 and -0.392 ± 0.09. CAUUAGCAAUAUUACGCUGA: the “self-splicing fitness (ln)” value was -3.13 ± 0.24 (30 °C) and -1.96 ± 0.26 (37 °C). Take AUCUAGCAAUAUUACGUCCA: the “self-splicing fitness (ln)” value is -0.699 ± 0.14 (30 °C) and 0.279 ± 0.12 (37 °C).

For the sequence GCUCAGCAAUAUUACGGUGC, the “self-splicing fitness (ln)” value was -1.82 ± 0.19 (30 °C) and -1.29 ± 0.16 (37 °C). On the same counts, the results for GCUUAGCAAUAUUACGAACG are -0.817 ± 0.099 and 0.062 ± 0.14.

Regarding AGGAAGCAAUAUUACGGACC, the “self-splicing fitness (ln)” value by setting is: (30 °C) -0.483 ± 0.27; (37 °C) 0.238 ± 0.27. With AUAUAGCAAUAUUACGGUCG, the “self-splicing fitness (ln)” value reads like this: (30 °C) -1.44 ± 0.13; (37 °C) -1.26 ± 0.17. The like results for AAGGAGCAAUAUUACGGUGU were, in that order, -3.44 ± 0.24 and -1.77 ± 0.19.
